US20160368985A1 (published 2016)

T1: human E11 protein (E11 domain of human FcRH5), soluble (human, UniProt Q96RD9 745-850)
T1 construct: Expressed in CHO cells; also called human E11 domain
T1 sequence: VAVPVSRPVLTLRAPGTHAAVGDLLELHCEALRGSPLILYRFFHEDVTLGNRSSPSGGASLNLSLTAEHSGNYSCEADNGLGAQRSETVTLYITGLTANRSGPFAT

T2: cynomolgus E11 protein (E11 domain of cynomolgus FcRH5), soluble (cynomolgus monkey)
T2 chain: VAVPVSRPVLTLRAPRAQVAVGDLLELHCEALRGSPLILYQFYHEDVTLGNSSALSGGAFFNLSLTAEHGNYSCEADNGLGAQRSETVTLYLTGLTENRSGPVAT

B1: 17B1 (antibody, mouse IgG2a, V domains shown)
VH: QVQLQQSGPELVRPGVSVKISCKGSGYTFTHYAMHWVKQSHTKSLEWIGMISSSSGNTNFNQKFMDKATMTVDKSSTTAYLELARLTFGDSAIYYCARWSYYALFDYWGQGTTVTVSS
VL: ENVLTQSPAIMSASPGEKVTMTCSADSSVDYIHWYQQKSNTSPKLWIYDTSKLASGVPGRFSGSGSGNSYSLTISSMEAEDFATYYCFQGSGYPLTFGSGTKLELK
notes: Mouse mAb, Immunization Campaign C; expressed recombinantly as murine IgG2a for SPR
B2: 15G8 (antibody, mouse IgG2a, V domains shown)
VH: EVQLQQSGPELVKPGASVKMSCKASGYTFTNYVIHWMKQKPGQGLEWIGYISPYNDYTKYNEKFEGKATLTSDKSSNTAYMELSSLTSEDSAVYYCARRDYYGSSDYWGQGTTLTVSS
VL: QIVLTQSPAIMSASPGEKVTMTCSASSSVDYMHWYQQKSGTSPKKWIYDTSKLASGVPARFSGSGSGTSYSLTIGSMEAEDAATYYCQQWSSNPPTFGGGTKLEIK
notes: Mouse mAb, Immunization Campaign C; expressed recombinantly as murine IgG2a for SPR; also called mAb 15G8

Key:
[1] = biological target: T1, human E11 protein (E11 domain of human …); experiment: SPR BIACORE T200, IgG capture, monovalent
[2] = biological target: T2, cynomolgus E11 protein (E11 domain of …); experiment: SPR BIACORE T200, IgG capture, monovalent

Binder | Kd [1] | Kd [2]
B1 | 68 nM | 27 nM
B2 | 0.5 nM | 9.1 nM
